Results taken from the supplement of paper PMC10724198.
± gives the standard deviation of the averaged measurements.

System: Saccharomyces cerevisiae
Assay: protein stability index of tFT-peptide fusion (C-terminal peptide) (PSI (0-1 scale)); higher = more stable (slower turnover)
Conditions: genetic background: wild type; temperature: 30 C
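Further: PSI is a weighted mean of sequencing reads over stability bins, variants kept only with over 10 reads, mCherry proximal and sfGFP distal, peptide attached via GGGS linker.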

Sequence	protein stability index
LPPLLGPSPCPP	0.604 ± 0.015
LPPLLLPTRPLS	0.662 ± 0.12
LPPLPPLAHHPA	0.699 ± 0.044
LPPPLPLPSRHY	0.671 ± 0.06
LPPPLSSPSSLR	0.7153 ± 0.0071
LPPPPLSPPSLV	0.734 ± 0.0078
LPPPPPAFLDSF	0.691 ± 0.065
LPPPPPPLPHPP	0.597 ± 0.083
LPPPPRPALSHR	0.72 ± 0.089
LPPPRSPPLPRL	0.802 ± 0.059
LPPPSPPPIPSP	0.688 ± 0.06
LPPPVFPLRLSL	0.703 ± 0.027
LPPRPGFLSSLP	0.64 ± 0.082
LPPRSPSPHPHR	0.68 ± 0.0078
LPPSPLPPLPPP	0.6942 ± 0.0012
LPPSRSPPPFPL	0.728 ± 0.048
LPPSSCPPPPTP	0.702 ± 0.068
LPPSSFPTPSPP	0.723 ± 0.08
LPPSTYPASTPS	0.674 ± 0.054
LPPVPRAYFSDT	0.714 ± 0.061
LPRHKWLPSGLG	0.686 ± 0.056
LPRPPPPSPPPP	0.7 ± 0.042
LPRTALHSPSPY	0.723 ± 0.082
LPRTPPPLAHGP	0.688 ± 0.041
LPSGLTSPPRSS	0.712 ± 0.031
LPSHPHDRPPQT	0.719 ± 0.019

Sequence	protein stability index
LPSLDSVCLLFP	0.685 ± 0.026
LPSLLIHLVSQT	0.668 ± 0.02
LPSPALSRSDPT	0.729 ± 0.031
LPSPPRHPSAPR	0.683 ± 0.022
LPSPRIPLTSQS	0.638 ± 0.031
LPSPSYPAPVPN	0.65 ± 0.074
LPTPSLPPLPFH	0.623 ± 0.058
LPTSPQLPHAPS	0.7192 ± 0.0046
LPTSSTRVEFSV	0.638 ± 0.045
LPVPLYPTPALL	0.666 ± 0.14
LPVPPPPPLPET	0.702 ± 0.061
LPYAMPGFHSTR	0.701 ± 0.037
LQASRHPASPST	0.701 ± 0.048
LQCCVAVTNYCV	0.54 ± 0.016
LQCRAEFQRARC	0.666 ± 0.031
LQFAQLLDISIT	0.696 ± 0.062
LQKNKIPTKKKD	0.647 ± 0.0097
LRARLTGRFIVG	0.669 ± 0.013
LRAWAAPPPHGL	0.727 ± 0.076
LRCFLESPRQST	0.724 ± 0.071
LRESPPHLPFPP	0.701 ± 0.039
LRFGEGILLDWG	0.723 ± 0.043
LRFRCGNSRILS	0.724 ± 0.044
LRGAWRISIEGG	0.666 ± 0.036
LRGEGAGPEDVG	0.67 ± 0.029
LRGTEMMSTSVV	0.656 ± 0.085

Sequence	protein stability index
LRGVDSALCGAR	0.693 ± 0.082
LRHLPRDVPSYI	0.7049 ± 0.0046
LRLSASRLLPPP	0.736 ± 0.015
LRLSSYRAPRPR	0.649 ± 0.032
LRPCSSLPSTPP	0.718 ± 0.049
LRPCVSHLHLQN	0.677 ± 0.18
LRPGRSKHSSQA	0.721 ± 0.044
LRQVGTASSLRR	0.717 ± 0.045
LRREQIKEAKHR	0.66 ± 0.017
LRRNHREPGYSK	0.684 ± 0.024
LRRPSPPAPPPP	0.718 ± 0.11
LRSAPTLFTRPY	0.677 ± 0.0091
LRSAYGHCLQKI	0.715 ± 0.14
LRSCLARGLFFG	0.7426 ± 0.0066
LRSLRFALFPPA	0.642 ± 0.083
LRVQASALHVLQ	0.667 ± 0.021
LRVQFFFLAGCT	0.584 ± 0.006
LRYGSDQMERFI	0.717 ± 0.1
LSAMVSYTRAPF	0.67811 ± 0.00065
LSARAKRTVTFL	0.593 ± 0.043
LSASHVMSLTNL	0.698 ± 0.028
LSCQWNSDSLGV	0.644 ± 0.1
LSCRGVTIRYCW	0.683 ± 0.012
LSCSPVFFPLQP	0.69 ± 0.0096
LSDLDSMVMIVP	0.869 ± 0.16
LSDSLERVGGAF	0.701 ± 0.048

Sequence	protein stability index
LSFSFSPTSPPP	0.739 ± 0.072
LSFWGLLSFWTP	0.594 ± 0.02
LSGWVLVGNWGN	0.647 ± 0.036
LSILSIHAHRAN	0.665 ± 0.099
LSLAPPPLLHHL	0.664 ± 0.02
LSLLKPLALCES	0.559 ± 0.032
LSLLPFLRPPPI	0.774 ± 0.043
LSLPPHSPPLHR	0.702 ± 0.04
LSLPQPHPPLKS	0.679 ± 0.029
LSMPRVHTRHRP	0.708 ± 0.014
LSPGLPRLLVKM	0.669 ± 0.033
LSPLGLGPLLPP	0.68 ± 0.048
LSPLRPPAPSVF	0.646 ± 0.038
LSPPFLLTSPLT	0.703 ± 0.046
LSPPLAPPPALP	0.701 ± 0.08
LSPPPPPPVFSP	0.727 ± 0.026
LSPPVLLAPPQH	0.59 ± 0.0098
LSRPPSRPLPLP	0.677 ± 0.04
LSRTAFRPSLTL	0.746 ± 0.024
LSSADSVVSSVV	0.696 ± 0.0093
LSTYVLRTGSFP	0.677 ± 0.1
LSVAYSDIIVRC	0.554 ± 0.0065
LSVSRLGFLLRG	0.684 ± 0.037
LSVTGGRFSVSG	0.7174 ± 0.0063
LSYSSLGLRFSY	0.579 ± 0.02
LSYWPDARRPVL	0.643 ± 0.046

Sequence	protein stability index
LTFPILPVSTRV	0.603 ± 0.025
LTGSGSGQGSRN	0.688 ± 0.0097
LTHSTLCYASDL	0.677 ± 0.018
LTKHQITKKAER	0.73 ± 0.078
LTLPSDSSALPA	0.748 ± 0.03
LTPCPHATPEPP	0.615 ± 0.026
LTPFQGLHLPIP	0.745 ± 0.037
LTPMDVPDPLPH	0.757 ± 0.14
LTVGPCQPAGEA	0.776 ± 0.065
LTVLCWVLCYLL	0.527 ± 0.026
LTYFSDRFVTRV	0.6579 ± 0.0051
LVAHLSTAPPPP	0.675 ± 0.0061
LVCCRRILLNTT	0.634 ± 0.089
LVCPLGIEGFSM	0.723 ± 0.034
LVCSSVALLSVL	0.593 ± 0.018
LVDARVRLTFVI	0.536 ± 0.014
LVGAGREGRFVA	0.732 ± 0.083
LVGGTVYRKPSP	0.599 ± 0.025
LVGICERRHVHC	0.638 ± 0.11
LVKRINKVNNRR	0.632 ± 0.1
LVKVGCVGLIKC	0.545 ± 0.0066
LVLPCLLLFPPS	0.711 ± 0.047
LVNLESRAGAIR	0.713 ± 0.043
LVNSEKFCLSIC	0.535 ± 0.035
LVPDGFMLALKE	0.686 ± 0.038
LVQGPLSQDQPI	0.656 ± 0.029

Sequence	protein stability index
LVRFVLNKYRGR	0.718 ± 0.012
LVRVFGQSPAPL	0.696 ± 0.031
LVSFSDTPMATA	0.786 ± 0.1
LVVSITGRFRRF	0.69 ± 0.03
LVVWFGYFGCLL	0.56 ± 0.063
LVWGGVWGAPCR	0.774 ± 0.034
LVWTGGLVGWLR	0.719 ± 0.2
LVYPSPPLQPPP	0.649 ± 0.013
LWAYRFAAGEVH	0.589 ± 0.08
LWGGGVGGVRGV	0.641 ± 0.027
LWGGPLLLPVCL	0.577 ± 0.013
LWGRAVYETFQM	0.67 ± 0.063
LWGSGRNWLLWR	0.7 ± 0.017
LWGVGGADARLQ	0.775 ± 0.021
LWGWAGLRCGGF	0.685 ± 0.032
LWLCLCCSPFFV	0.658 ± 0.1
LWTASISVAEVR	0.633 ± 0.012
LWVGVVGGVRGV	0.598 ± 0.1
LWVREVVVVGTV	0.519 ± 0.013
LWVSGARTTGYF	0.756 ± 0.048
LYHPRLAPLPRT	0.627 ± 0.042
LYIPQKRGLSLH	0.62 ± 0.021
LYITLLEFKEGR	0.643 ± 0.025
LYKKRSCCLSPL	0.714 ± 0.053
LYMSRYLQLNFG	0.653 ± 0.005
LYNFLFLLPYSL	0.647 ± 0.13

Sequence	protein stability index
LYPDTDSLTPLP	0.725 ± 0.05
LYPPVYRPVLSL	0.6626 ± 0.0029
LYQRCVCSFREK	0.639 ± 0.016
LYSGADPLPWGR	0.716 ± 0.01
LYSSMFCGTFLL	0.605 ± 0.048
LYSSPSLQSPNP	0.613 ± 0.021
LYVARVGQCVRD	0.686 ± 0.029
MAVDSVIISAVF	0.592 ± 0.096
MAVVSDDRDINC	0.681 ± 0.056
MCLSYLSIFLSL	0.548 ± 0.065
MCLTPLWYPSSA	0.709 ± 0.03
MDGAVRRCLVRG	0.666 ± 0.062
MEAERRKEGENS	0.673 ± 0.072
MERAGTADGGGA	0.662 ± 0.016
MESGGVGRVVWR	0.655 ± 0.079
MGGCGARAVVVG	0.6196 ± 0.0032
MGRQSCCHKTSG	0.643 ± 0.042
MGSGRGVITTKG	0.704 ± 0.0077
MGVYAVVGTHGV	0.687 ± 0.079
MIFCSPPPLFFP	0.7 ± 0.0013
MIIPTVLCRVDL	0.661 ± 0.022
MKASRREDLCEP	0.62 ± 0.065
MLLSKRHFESDV	0.692 ± 0.018
MLSPQIERGAGR	0.681 ± 0.018
MNERDKGKIKKQ	0.6974 ± 0.0069
MNLVEIIRGVRL	0.7063 ± 0.0051

Sequence	protein stability index
MNVASCRGREYV	0.686 ± 0.032
MPFYPSLLTSLL	0.678 ± 0.014
MPLPRQTSAPRP	0.665 ± 0.019
MPSRTYPSPPLG	0.693 ± 0.03
MSHISPFPIFPC	0.686 ± 0.0074
MSKGKKKGVKRK	0.703 ± 0.013
MSLSLLSLFSSL	0.606 ± 0.027
MTYKSKNRATEE	0.648 ± 0.025
NAVCCGKWRGGS	0.714 ± 0.11
NCGGQGKEDGCK	0.621 ± 0.013
NEGRRNSRRHGG	0.683 ± 0.028
NEHTTLKITKNK	0.6818 ± 0.003
NEIENYKDIIEK	0.684 ± 0.011
NESGWHNLLMSV	0.708 ± 0.0097
NESLKHDCVKDT	0.735 ± 0.13
NETVIATLGKGA	0.657 ± 0.037
NEYFYINVRNRV	0.6743 ± 0.0017
NFAFPWTSTHAF	0.699 ± 0.017
NFLVNGRASLKV	0.583 ± 0.016
NGGRCRIARVLE	0.679 ± 0.023
